Here are results for eight molecules from patent US20190309034A1 (Boehringer Ingelheim, published 2019).

A value given as a limit tells only on which side of the number the result lay.

Experiment [1] addresses T1, Recombinant soluble trimeric human BAFF (furin-cleaved human BAFF 134-285) (human, UniProt Q9Y275 134-285). The experiment is described as follows: cell-based or functional assay.
Experiment [2] addresses T1, Recombinant soluble trimeric human BAFF …. Description: cell-based or functional assay. This is another data set of the same source.
Experiment [3] addresses T2, Recombinant soluble 60-mer human BAFF (His-HuBAFF 134-285) (human, UniProt Q9Y275 134-285). The experiment is described as follows: cell-based or functional assay.
For experiment [4], the target named is T3, Human membrane-bound BAFF (mbBAFF) (human, UniProt Q9Y275 1-285). The experiment is described as follows: cell-based or functional assay.
Experiment [5] has as its target T1, Recombinant soluble trimeric human BAFF …. Description: cell-based or functional assay. This is another data set of the same source.
The target of experiment [6] is T3, Human membrane-bound BAFF (mbBAFF). Description: cell-based or functional assay. This is another data set of the same source.
Experiment [7] deals with T1, Recombinant soluble trimeric human BAFF …. Description: SPR, antibody captured on Protein A/G, soluble trimeric BAFF flowed over, 1:1 Langmuir global fit, apparent affinity. Here is the method: (§1) Apparent binding affinities were evaluated using surface plasmon resonance where the antibodies were captured at different surface densities on a Protein A/G surface. Soluble trimeric BAFF at different concentrations were flowed over the captured antibody. Clinical reference antibodies (Reference 1 comprising SEQ ID NOS: 98 and 116) and Reference 2 comprising SEQ ID NOS: 99 and 117) were used as comparators.
For orientation: Surface plasmon resonance follows binding to a sensor surface in real time, without labels.

Experiment [8] shares this target. The experiment is described as follows: SPR, antibody captured on Protein A/G, soluble trimeric BAFF flowed over, 1:1 Langmuir global fit, apparent affinity (at detection limit). Here is the method:
as §1

Experiment [9] addresses T2, Recombinant soluble 60-mer human BAFF …. Description: cell-based or functional assay. This is another data set of the same source.

B1: Reference 2 (antibody, human IgG1, lambda, V domains shown)
VH: QVQLQQSGAEVKKPGSSVRVSCKASGGTFNNNAINWVRQAPGQGLEWMGGIIPMFGTAKYSQNFQGRVAITADESTGTASMELSSLRSEDTAVYYCARSRDLLLFPHHALSPWGRGTMVTVSS
VL: SSELTQDPAVSVALGQTVRVTCQGDSLRSYYASWYQQKPGQAPVLVIYGKNNRPSGIPDRFSGSSSGNTASLTITGAQAEDEADYYCSSRDSSGNHWVFGGGTELTVLG
notes: Comparator anti-BAFF antibody
With B1, in experiment [1], the “IC50 (neutralisation of soluble trimeric huBAFF activation of human BAFFR, luciferase reporter CHO cells)” value was 0.22 nM. For the same molecule, the “Soluble trimeric huBAFF (50 pM) Neutralization IC90” value in experiment [2] is 1000 pM. In experiment [3], the “Soluble 60-mer huBAFF (4 pM) Neutralization IC50” value is 38300 pM and the “Soluble 60-mer huBAFF (4 pM) Neutralization IC90” value was determined as 198000 pM. Further, in [4], the “Potent mbBAFF Neutralization IC50” value came to 2.18 nM and the “Potent mbBAFF Neutralization IC90” value was determined as 151 nM. Further, the “Soluble trimeric huBAFF (52 pM) Neutralization IC90” value in experiment [5] was 1000 pM. Moreover, the “IC50 (neutralisation of mbBAFF activation of human BAFFR, fixed mbBAFF-CHO mixed with luciferase reporter BAFFR-CHO cells)” value in experiment [6] turned out to be 8.6 nM. Further, the Kd in [7] amounted to 0.0222 nM.

B2: 210D9B8 (antibody, V domains shown)
VH: QVQLQQPGTEFVKPGASVKLSCEASGYTFITYWMHWVKQRPGRGLEWIGGIDPNSGVIKYNEKFKSKATLTVDKPSSTAYMQLSSLTSEDSAVYYCARGEDLLIRTDAMDYWGQGTSVTVSS
VL: DIVMTQSQKFVSTTLGDRVSITCKASQSVGIAVAWYQQKPGHSPNLLIFSTSNRYTGVPDRFTGSGSGTDFTLTISDVQSEDLADYFCQQYSRYPRTFGGGTKLEIK
notes: Mouse lead antibody (hybridoma)
Turning to B2, the Kd in [8] was under 0.01 nM. Besides, the “Soluble trimeric huBAFF (52 pM) Neutralization IC90” value in [5] came to 156 pM. Besides, the “Soluble 60-mer huBAFF (4.2 pM) Neutralization IC90” value in experiment [9] was 14 pM.

B3: 13J018-1A4 (antibody, V domains shown)
VH: QVQLQQSGPEVVRPGASVKISCKAPDHIFSIHWMQWVRQRPGPGLEWIGEIFPGSGTTDYNEKFKGKATVTVDRGSRSAYMQFNSLTSEDSAVYFCASGAFDYWGQGTTLTVSS
VL: DIQMTQSPSSLSASLGERVSLTCRASQDIGNRLNWLQQEPDGTIKRLIYATSSLDSGVPKRFSGSRSGSDYSLTISSLESEDFVDYYCLQYASSPFTFGTGTKLEIK
notes: as for B2
Turning to B3, in experiment [1], the “IC50 (neutralisation of soluble trimeric huBAFF activation of human BAFFR, luciferase reporter CHO cells)” value was 0.11 nM and the “IC90 (neutralisation of soluble trimeric huBAFF activation of human BAFFR, luciferase reporter CHO cells)” value turned out to be 0.35 nM. The Kd in experiment [8] was under 0.01 nM. The “Soluble trimeric huBAFF (52 pM) Neutralization IC90” value in experiment [5] amounted to 305 pM. Moreover, the “Soluble 60-mer huBAFF (4.2 pM) Neutralization IC90” value in experiment [9] is 23 pM. Further, the “IC50 (neutralisation of mbBAFF activation of human BAFFR, fixed mbBAFF-CHO mixed with luciferase reporter BAFFR-CHO cells)” value in [6] is 0.29 nM.

B4: Ch-13J0-18-1A4 (antibody, V domains shown)
VH: QVQLQQSGPEVVRPGASVKISCKAPDHIFSIHWMQWVRQRPGPGLEWIGEIFPGSGTTDYNEKFKGKATVTVDRGSRSAYMQFNSLTSEDSAVYFCASGAFDYWGQGTTLTVSS
VL: DIQMTQSPSSLSASLGERVSLTCRASQDIGNRLNWLQQEPDGTIKRLIYATSSLDSGVPKRFSGSRSGSDYSLTISSLESEDFVDYYCLQYASSPFTFGTGTKLEIK
B4: in [1], the “IC50 (neutralisation of soluble trimeric huBAFF activation of human BAFFR, luciferase reporter CHO cells)” value stood at 0.16 nM and the “IC90 (neutralisation of soluble trimeric huBAFF activation of human BAFFR, luciferase reporter CHO cells)” value was determined as 0.45 nM. Moreover, the “IC50 (neutralisation of mbBAFF activation of human BAFFR, fixed mbBAFF-CHO mixed with luciferase reporter BAFFR-CHO cells)” value in [6] is 0.41 nM.

B5: 214G4B7 (antibody, V domains shown)
VH: QVQLQQPGAEFVKPGASVKLSCKASGYSFSTFCIHWVQQRPGRGLEWIGRIDPNSGGTKYNEKFESKATLTIDKPSSTAYVHLSSLTSEDSAVYYCARGEDLLIRTDAMDYWGQGTSVTVSS
VL: DIVMTQSQKFMSTTVGDRVSITCKASQNAGTAVAWFQQKPGQSPKLLIFSTSNRYTGVPDRFTGSGSGTDFTLTISNMQSEDLADYFCLQYRSYPRTFGGGTKLEIK
notes: as for B2
Consider B5, for which the Kd in experiment [8] is under 0.01 nM. For the same molecule, the “Soluble trimeric huBAFF (52 pM) Neutralization IC90” value in experiment [5] is 296 pM. For the same molecule, the “Soluble 60-mer huBAFF (4.2 pM) Neutralization IC90” value in experiment [9] turned out to be 3 pM.

B6: Ch-235F5B9 (antibody, V domains shown)
VH: QVQLQQPGAELVKPGASVKLSCKASGYSFSTFFIHWIQQRPGRGLEWIGRIDPNSGATKYNEKFESKATLTVDKPSSTAYMHLSSLTSEDSAVYYCARGEDLLIRTDALDYWGQGTSVTVSS
VL: DIVMTQSQKIMSTTVGDRVSITCKASQNAGIDVAWFQQKPRQSPKLLIFSKSNRYTGVPDRFAGSGSGTDFTLTIYNVQSEDLADYFCLQYRSYPRTFGGGTKLEIK
For the molecule B6, in experiment [1], the “IC50 (neutralisation of soluble trimeric huBAFF activation of human BAFFR, luciferase reporter CHO cells)” value was determined as 0.13 nM and the “IC90 (neutralisation of soluble trimeric huBAFF activation of human BAFFR, luciferase reporter CHO cells)” value worked out at 0.27 nM. The “IC50 (neutralisation of mbBAFF activation of human BAFFR, fixed mbBAFF-CHO mixed with luciferase reporter BAFFR-CHO cells)” value in [6] was determined as 0.19 nM.

B7: 235F5B9 (antibody, V domains shown)
VH: QVQLQQPGAELVKPGASVKLSCKASGYSFSTFFIHWIQQRPGRGLEWIGRIDPNSGATKYNEKFESKATLTVDKPSSTAYMHLSSLTSEDSAVYYCARGEDLLIRTDALDYWGQGTSVTVSS
VL: DIVMTQSQKIMSTTVGDRVSITCKASQNAGIDVAWFQQKPRQSPKLLIFSKSNRYTGVPDRFAGSGSGTDFTLTIYNVQSEDLADYFCLQYRSYPRTFGGGTKLEIK
notes: as for B2
For B7, in [1], the “IC50 (neutralisation of soluble trimeric huBAFF activation of human BAFFR, luciferase reporter CHO cells)” value was determined as 0.11 nM and the “IC90 (neutralisation of soluble trimeric huBAFF activation of human BAFFR, luciferase reporter CHO cells)” value turned out to be 0.21 nM. Besides, in [8], the Kd is under 0.01 nM. Also, the “Soluble trimeric huBAFF (52 pM) Neutralization IC90” value in experiment [5] was 107 pM. For the same molecule, the “Soluble 60-mer huBAFF (4.2 pM) Neutralization IC90” value in [9] turned out to be 2.2 pM. Also, the “IC50 (neutralisation of mbBAFF activation of human BAFFR, fixed mbBAFF-CHO mixed with luciferase reporter BAFFR-CHO cells)” value in experiment [6] came to 0.18 nM.

B8: Reference 1 (antibody, human IgG4 S228P, kappa, V domains shown)
VH: QVQLQQWGAGLLKPSETLSLTCAVYGGSFSGYYWSWIRQPPGKGLEWIGEINHSGSTNYNPSLKSRVTISVDTSKNQFSLKLSSVTAADTAVYYCARGYYDILTGYYYYFDYWGQGTLVTVSS
VL: EIVLTQSPATLSLSPGERATLSCRASQSVSRYLAWYQQKPGQAPRLLIYDASNRATGIPARFSGSGSGTDSTLTISSLEPEDFAVYYCQQRSNWPRTFGQGTKVEIKR
notes: Comparator anti-BAFF antibody
With B8, the “IC50 (neutralisation of soluble trimeric huBAFF activation of human BAFFR, luciferase reporter CHO cells)” value in experiment [1] amounted to 0.12 nM. In addition, in experiment [8], the Kd is under 0.01 nM. Further, in experiment [2], the “Soluble trimeric huBAFF (50 pM) Neutralization IC90” value was 290 pM. In addition, in experiment [3], the “Soluble 60-mer huBAFF (4 pM) Neutralization IC50” value amounted to 40 pM and the “Soluble 60-mer huBAFF (4 pM) Neutralization IC90” value was determined as 102 pM. In experiment [4], the “Potent mbBAFF Neutralization IC50” value was determined as 0.177 nM and the “Potent mbBAFF Neutralization IC90” value came to 1.05 nM. The “Soluble trimeric huBAFF (52 pM) Neutralization IC90” value in experiment [5] is 290 pM. Further, the “Soluble 60-mer huBAFF (4.2 pM) Neutralization IC90” value in experiment [9] was found to be 21 pM. The “IC50 (neutralisation of mbBAFF activation of human BAFFR, fixed mbBAFF-CHO mixed with luciferase reporter BAFFR-CHO cells)” value in [6] was found to be 0.21 nM.
